In US20170212130A1:

Assays:
[1] = target: GFP-His6 (eGFP) (Aequorea victoria) [GFP: P42212]; experiment: label under gel lane; legend: in vitro Kd for GFP by SPR; the asterisk is not explained on the sheet
[2] = target: S. cerevisiae Nup84-GFP (S. cerevisiae) (UniProt P52891); experiment: time course of Nup84-GFP isolation from yeast with dimer-conjugated magnetic beads, Coomassie band quantification

Substance | Kd [1] [nM] | relative yield of affinity isolation, percent of maximum, after 5 minutes [2] [%] | relative yield of affinity isolation, percent of maximum, after 10 minutes [2] [%]
GFP-Trap nanobody (ChromoTek GmbH) (VHH) | 0.23 |  | 
LaG16-LaG2 fusion with a flexible glycine-rich linker (G4S) |  | 80 | 90
